Assay results as given in patent US20220348651A1 (Novartis, published 2022).

Legend:
[1] = target: T1, mouse ENTPD2 expressed on cells (mouse, UniProt O55026 1-495); assay: flow cytometry (FACS)
T1 construct: also called NIH3T3-mouse ENTPD2 engineered cell line; mouse ENTPD2-engineered 4T1 clone 45
T1 sequence: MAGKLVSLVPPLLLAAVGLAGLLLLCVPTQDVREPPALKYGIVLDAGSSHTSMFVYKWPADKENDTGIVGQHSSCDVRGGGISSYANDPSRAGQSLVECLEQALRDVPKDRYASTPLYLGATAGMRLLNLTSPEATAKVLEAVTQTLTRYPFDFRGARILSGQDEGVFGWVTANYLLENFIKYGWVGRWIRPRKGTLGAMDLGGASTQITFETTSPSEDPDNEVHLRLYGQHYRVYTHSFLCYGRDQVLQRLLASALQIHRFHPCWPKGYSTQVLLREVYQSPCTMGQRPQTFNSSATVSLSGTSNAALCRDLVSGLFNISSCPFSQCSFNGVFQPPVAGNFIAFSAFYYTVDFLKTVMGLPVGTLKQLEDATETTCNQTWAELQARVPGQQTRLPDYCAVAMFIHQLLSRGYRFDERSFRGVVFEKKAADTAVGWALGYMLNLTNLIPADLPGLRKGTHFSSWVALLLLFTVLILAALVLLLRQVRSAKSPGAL

[2] = target: T1, mouse ENTPD2 expressed on cells; assay: cell-based or functional assay
[3] = target: T2, recombinant murine ENTPD2 (residues 29-462) used in crystallography studies (mouse, UniProt O55026 29-462, N-linked glycosylation observed at Asn129 and Asn378); assay: X-ray crystal structure of the complex
T2 construct: also called murine ENTPD2 ectodomain; mENTPD2
T2 sequence: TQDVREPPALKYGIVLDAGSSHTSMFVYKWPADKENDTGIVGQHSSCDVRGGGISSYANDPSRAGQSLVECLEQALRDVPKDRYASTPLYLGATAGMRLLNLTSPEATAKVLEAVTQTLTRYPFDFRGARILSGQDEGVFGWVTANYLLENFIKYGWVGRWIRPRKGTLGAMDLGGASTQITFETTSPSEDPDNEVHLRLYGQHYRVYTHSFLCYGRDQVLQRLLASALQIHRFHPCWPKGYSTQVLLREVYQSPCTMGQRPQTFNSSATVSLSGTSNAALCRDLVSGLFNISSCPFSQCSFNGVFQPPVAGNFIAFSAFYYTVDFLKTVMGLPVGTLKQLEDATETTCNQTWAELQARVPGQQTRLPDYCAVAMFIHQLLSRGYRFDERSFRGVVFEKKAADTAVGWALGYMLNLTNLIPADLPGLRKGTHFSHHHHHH
Experimental: Structure determination by molecular replacement was performed using the previously determined human ENTPD2 coordinates and Fab coordinates from PDB code 3QRG.

B1: ANTI-mouse ENTPD2 MAB13 (antibody, mouse IgG2a, kappa, V domains shown)
VH: QVQLVQSGAELKQPGQSVKISCKASGYTFTHYGMNWVKQAPGQGLKWMGWINTDTGNPTYADDFKGRFVFSLDTSVSTAYLQISNLKNEDTATYYCVRYGTLYSGYGFFFDSWGQGTLVTVSS
VL: DIMMTQSPSSLSVSAGEKATITCKSSQSLFNSNTNKNYLNWYLQKPGQSPKLLFYYASTRHTGVPDRFIGSGSGTDFTLTITSVQDEDLADYYCQQWYSYPWTFGPGTKLEIKR
notes: mouse ENTPD2 selective antibody; also called Anti-ENTPD2 mAb13
**Q.** Which EC50 [1] does the source give for B1 here?
**A.** 3 to 4 nM

**Q.** And the “ENTPD2 Functional Assay IC50 (mouse ENTPD2 NIH/3T3 cells)” value [2]?
**A.** 2.8 nM

B2: ANTI-mouse ENTPD2 FAB24 (Fab, V domains shown)
VH: B1 VH
VL: B1 VL
modifications: N-terminal residue observed and modeled as pyroglutamate in the crystal structure
notes: Fab with the variable regions of mAb13; human CH1 and kappa constant regions; also called anti-murine ENTPD2 Fab MAB13
**Q.** For B2, which buried solvent-accessible surface [3] is on record?
**A.** ~16300 Å2
